Reverse-splicing fitness data for 15 variants are collected here from the RNAGym collection of RNA variant scans (doi:10.1093/molbev/msab373).

B1: Azoarcus group I ribozyme (parent)
chain: GUGCCUUGCGCCGGGAAACCACGCAAGGGAUGGUGUCAAAUUCGGCGAAACCUAAGCGCCCGCCCGGGCGUAUGGCAACGCCGAGCCAAGCUUCGGCGCCUGCGCCGAUGAAGGUGUAGAGACUAGACGGCACCCACCUAAGGCAAACGCUAUGGUGAAGGCAUAGUCCAGGGAGUGGCGAAAGUCACACAAACCGG

The variants in this data set derive from B1. Kind of data set: reverse-splicing fitness (ratio to wild type); higher = more active; in vitro selection; Mg2+ level not given. Put shortly:
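An in vitro group I ribozyme library with randomized positions was T7-transcribed and gel-purified. In triplicate, 10 pmol RNA in EPPS pH 7.5 was reacted with 50 pmoles of a 30-nt RNA substrate for 1 h at 37 °C across several added MgCl2 levels (1–48 mM), then stopped with EDTA. Products were reverse transcribed from a substrate-complementary primer, PCR-amplified and sequenced (HiSeq 4000). Fitness is a variant's read proportion after selection over that before, normalised to wild type.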
In the case of GUGCCUUGCGCCGGGAAACCACGCAAGGGAUGGUGUCAAAUUCGGCGAAACCUAAGCGCCCGCCCGGGCGUAUGGCAACGCGGAGCCAAGCUUCGGCGCCUGCGCCGAUGAAGGUGUAGAGACUAGACGGCACCCACCUAAGGCAAACGUUAUGGUGAAGGCAUAGUCUAGGGAGUGGCGAAAGUCACACAAACCGG [C82G C150U C169U], the reverse-splicing fitness was 0.0143.

Take GUGCCUUGCGCCGGGAAACCACGCAAGGGAUGGUGUCAAAUUCGGCGAAACCUAAGCGCCCGCCCGGGCGUAUGGCAACGCGGAGCCAAGCUUCGGCGCCUGCGCCGAUGAAGGUGUAGAGACUAGACGGCACCCACCUAAGGCAAACGUUAUGGUGAAGGCAUAGUCGAGGGAGUGGCGAAAGUCACACAAACCGG [C82G C150U C169G]: the reverse-splicing fitness was 0.0104.

As for GUGCCUUGCGCCGGGAAACCACGCAAGGGAUGGUGUCAAAUUCGGCGAAACCUAAGCGCCCGCCCGGGCGUAUGGCAACGCGGAGCCAAGCUUCGGCGCCUGCGCCGAUGAAGGUGUAGAGACUAGACGGCACCCACCUAAGGCAAACGUUAUGGUGAAGGCAUAGUCAAGGGAGUGGCGAAAGUCACACAAACCGG [C82G C150U C169A], the reverse-splicing fitness amounted to 0.0106.

As to GUGCCUUGCGCCGGGAAACCACGCAAGGGAUGGUGUCAAAUUCGGCGAAACCUAAGCGCCCGCCCGGGCGUAUGGCAACGCGGAGCCAAGCUUCGGCGCCUGCGCCGAUGAAGGUGUAGAGACUAGACGGCACCCACCUAAGGCAAACGUUAUGGUGAAGGCAUAGUCAAGGGAGGGGCGAAAGUCACACAAACCGG [C82G C150U C169A U176G], the reverse-splicing fitness was 0.00526.

With GUGCCUUGCGCCGGGAAACCACGCAAGGGAUGGUGUCAAAUUCGGCGAAACCUAAGCGCCCGCCCGGGCGUAUGGCAACGCGGAGCCAAGCUUCGGCGCCUGCGCCGAUGAAGGUGUAGAGACUAGACGGCACCCACCUAAGGCAAACGUUAUGGUGAAGGCAUAGUCAAGGGAGAGGCGAAAGUCACACAAACCGG [C82G C150U C169A U176A], the reverse-splicing fitness worked out at 0.0176.

As for GUGCCUUGCGCCGGGAAACCACGCAAGGGAUGGUGUCAAAUUCGGCGAAACCUAAGCGCCCGCCCGGGCGUAUGGCAACGCGGAGCCAAGCUUCGGCGCCUGCGCCGAUGAAGGUGUAGAGACUAGACGGCACCCACCUAAGGCAAACGUUAUGGUGAAGGCAUAGUCAAGGGAGCGGCGAAAGUCACACAAACCGG [C82G C150U C169A U176C], the reverse-splicing fitness amounted to 0.0132.

Turning to GUGCCUUGCGCCGGGAAACCACGCAAGGGAUGGUGUCAAAUUCGGCGAAACCUAAGCGCCCGCCCGGGCGUAUGGCAACGCGGAGCCAAGCUUCGGCGCCUGCGCCGAUGAAGGUGUAGAGACUAGACGGCACCCACCUAAGGCAAACGUUAUGGUGAAGGCAUAGUCCAGGGAGUGGCGAAAGUCACACAAACCGG [C82G C150U], the reverse-splicing fitness stood at 0.252.

As to GUGCCUUGCGCCGGGAAACCACGCAAGGGAUGGUGUCAAAUUCGGCGAAACCUAAGCGCCCGCCCGGGCGUAUGGCAACGCGGAGCCAAGCUUCGGCGCCUGCGCCGAUGAAGGUGUAGAGACUAGACGGCACCCACCUAAGGCAAACGGUAUGGUGAAGGCAUAGUCCAGGGAGUGGCGAAAGUCACACAAACCGG [C82G C150G], the reverse-splicing fitness worked out at 0.0318.

GUGCCUUGCGCCGGGAAACCACGCAAGGGAUGGUGUCAAAUUCGGCGAAACCUAAGCGCCCGCCCGGGCGUAUGGCAACGCGGAGCCAAGCUUCGGCGCCUGCGCCGAUGAAGGUGUAGAGACUAGACGGCACCCACCUAAGGCAAACGGUAUGGUGAAGGCAUAGUCGAGGGAGGGGCGAAAGUCACACAAACCGG [C82G C150G C169G U176G]: the reverse-splicing fitness was 0.00511.

Turning to GUGCCUUGCGCCGGGAAACCACGCAAGGGAUGGUGUCAAAUUCGGCGAAACCUAAGCGCCCGCCCGGGCGUAUGGCAACGCGGAGCCAAGCUUCGGCGCCUGCGCCGAUGAAGGUGUAGAGACUAGACGGCACCCACCUAAGGCAAACGGUAUGGUGAAGGCAUAGUCGAGGGAGAGGCGAAAGUCACACAAACCGG [C82G C150G C169G U176A], the reverse-splicing fitness was determined as 0.00727.

For GUGCCUUGCGCCGGGAAACCACGCAAGGGAUGGUGUCAAAUUCGGCGAAACCUAAGCGCCCGCCCGGGCGUAUGGCAACGCGGAGCCAAGCUUCGGCGCCUGCGCCGAUGAAGGUGUAGAGACUAGACGGCACCCACCUAAGGCAAACGGUAUGGUGAAGGCAUAGUCGAGGGAGCGGCGAAAGUCACACAAACCGG [C82G C150G C169G U176C], the reverse-splicing fitness came to 0.00598.

Regarding GUGCCUUGCGCCGGGAAACCACGCAAGGGAUGGUGUCAAAUUCGGCGAAACCUAAGCGCCCGCCCGGGCGUAUGGCAACGCGGAGCCAAGCUUCGGCGCCUGCGCCGAUGAAGGUGUAGAGACUAGACGGCACCCACCUAAGGCAAACGUUAUGGUGAAGGCAUAGUCGAGGGAGGGGCGAAAGUCACACAAACCGG [C82G C150U C169G U176G], the reverse-splicing fitness came to 0.00501.

In the case of GUGCCUUGCGCCGGGAAACCACGCAAGGGAUGGUGUCAAAUUCGGCGAAACCUAAGCGCCCGCCCGGGCGUAUGGCAACGCGGAGCCAAGCUUCGGCGCCUGCGCCGAUGAAGGUGUAGAGACUAGACGGCACCCACCUAAGGCAAACGUUAUGGUGAAGGCAUAGUCGAGGGAGCGGCGAAAGUCACACAAACCGG [C82G C150U C169G U176C], the reverse-splicing fitness turned out to be 0.0199.

For GUGCCUUGCGCCGGGAAACCACGCAAGGGAUGGUGUCAAAUUCGGCGAAACCUAAGCGCCCGCCCGGGCGUAUGGCAACGCGGAGCCAAGCUUCGGCGCCUGCGCCGAUGAAGGUGUAGAGACUAGACGGCACCCACCUAAGGCAAACGUUAUGGUGAAGGCAUAGUCGAGGGAGAGGCGAAAGUCACACAAACCGG [C82G C150U C169G U176A], the reverse-splicing fitness stood at 0.0154.

With GUGCCUUGCGCCGGGAAACCACGCAAGGGAUGGUGUCAAAUUCGGCGAAACCUAAGCGCCCGCCCGGGCGUAUGGCAACGCGGAGCCAAGCUUCGGCGCCUGCGCCGAUGAAGGUGUAGAGACUAGACGGCACCCACCUAAGGCAAACGGUAUGGUGAAGGCAUAGUCCAGGGAGCGGCGAAAGUCACACAAACCGG [C82G C150G U176C], the reverse-splicing fitness was 0.0287.
